Results on 40 sequences are retold here after the nanobody polyreactivity screen of Harvey et al. (2022).

The series in a line: yeast display, Sf9 membrane polyspecificity reagent, FACS + sequencing; frameworks hold sequencing errors. A digest of the protocol: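 In a synthetic yeast display library (Saccharomyces cerevisiae BJ5465), nanobody expression was induced with galactose for 36–48 hours. FACS gates were set low and high (top ~1%) using anti-HA fluorescence for expression and streptavidin fluorescence for binding of the Sf9 membrane reagent. Each polyreactivity label is drawn from the gate of origin.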
Take “QVQLVESGGGLLQAGGSLSLSCAASGGTFRYYTMGWYRQAPGKERELVASISGGGRTYYADSVKGRFTISRDNAKNTVYLQMNSLKPEDTAVYYCATYTRTFGYWGYGYWGQGTQVTVSS”: the “polyreactivity (PSR sort gate)” value is “high polyreactivity”.

Turning to “QVQLVESGGGLVQAGGSLRLSCAASGFIFNAYPMGWYRPAPGKERELVAAISSSGGRTYYADSVKGRFTISRDNAKNTVYLHMNSLKPEDTAVYYCNADKNSIIKLRGYYYWGQGTQVTVSS”, the “polyreactivity (PSR sort gate)” value is “high polyreactivity”.

“QVHLVESGGGLVQAGGSLRISCAASGSIFFPYAMGGYRQAPGKERELVAAISYSGTSTYYAASVKGRFTISRDNAKNTVYLQMNSLKPVDTAVYYCAAYSRYYASYDYWGQGTQVTVSS”: the “polyreactivity (PSR sort gate)” value is “high polyreactivity”.

Turning to “QVQLVESGGGLVQAGGSLRLSCAASGRIFNLYAMGWYRQAPGKERELVAAISYSGGRTYYADSVKGRFTISRDNAKNTVYLQMNSLKPEDTAVYYCNTVRGSVRQAGVGYDYWGQGTQVTVSS”, the “polyreactivity (PSR sort gate)” value is listed as “high polyreactivity”.

In the case of “QVQLVESGGGLVQAGGSLRLSCAASGGTFSPYYMGWYRQAPGKEREFVASITGSGGSTYYADSVKGRFTISRGNAKNTVYVQMNSLKPEDTAVYYCAAQCYWTYWPYLLRLYDYWGQGTQVTVSS”, the “polyreactivity (PSR sort gate)” value is recorded as “low polyreactivity”.

As for “QVQLVESGGGLVQAGGSLRLSCAASGFIFPLYTMGWYRQAPGKERELVAAISWIGGRTYYADSVKGRFTISRDNAKNTVYLQMNSLKPEDSAVYYCAKDPTGGGYGYDYWGQGTQVTVSS”, the “polyreactivity (PSR sort gate)” value was “low polyreactivity”.

Turning to “QVQLVESGGGLVQAGGSLRLSCAASGRIFKWYAMGWSRQAPGKEREFVAGISGSAGRTYYADSVKGRFTISRDNAKNTVYLQMNSLKPEDTAVYYCAKDYNRPVEDWAKVNGYDYWGQGTQVTVSS”, the “polyreactivity (PSR sort gate)” value is “low polyreactivity”.

On to “QVQLVESWGGLVQAGGSLRLSCAASGITFDGNAMGWYRQAPGKERELVAGISGSGGGTYYADSVKGRFTISRDNAKNTVYLHMNSLKPEDTAVYYCAADTSTSHAYDYWGQGTQVTVSS”, for which the “polyreactivity (PSR sort gate)” value was “low polyreactivity”.

“QVQLVESGGGLVQAGGSLRLSCAASGSIFGWYAMGWYRQAPGKERELVADISYIGVSTYYADSVKGRFTISRDNAKNTVYLQMNTLKPEDTAVYYCATYYLLYPIPYGYPRSPEYEYWGQGTQVTVSS”: the “polyreactivity (PSR sort gate)” value is “low polyreactivity”.

On to “QVQLVESGGGLVQAGGSLRLSCAASGFIFSNNAMGWYRQAPGKERELVAAITSSGGRTYYADSVKGRFTISRDNAKNTVYLQMNSLKPEDTAVYYCAAVWRTSVWTKYGYWGQGTQVTVSS”, for which the “polyreactivity (PSR sort gate)” value is listed as “high polyreactivity”.

“QVQLVESGGGLVQAGGSLRLSCAASGNILRFNAMGWYRQAPGKERELVAAISRSGGTTYYADSVKGRFTISRDNAKNTVYLQMNSLKPEDTAVYYCAARSRYGESPGYYWGQGTQVTVSS”: the “polyreactivity (PSR sort gate)” value is “high polyreactivity”.

Turning to “QVQLVESGGGLVQAGGSLRLSCAASGFLPNAMGWYRQAPGKERELVAAISSRGGSTYYADSVKGRFTISRDNAKNTVYLQMISLKPEDTAVYYCAATYYGRDGYRYDYWGQGTQVTVSS”, the “polyreactivity (PSR sort gate)” value is “high polyreactivity”.

Take “QVQLVESGGGLVQAGGRLRLSCAASGRTFTSNAMGWYRQAPGKERELVAAIDDGGSTNYADSVKGRFTISRDNAKNTVYLQMNSLKPEDTAVYYCNAPITWQYRGFRRRFDYWGQGTQVTVSS”: the “polyreactivity (PSR sort gate)” value is listed as “low polyreactivity”.

Take “QVQLVESGGGLVQAGGSLRLSCAASGFIILINVMGGYRQAPGNERELVAVITGGGTTNYADSVKGRFTISRDNAKNTVYLQMYSLKPEDTAVYYCAADWIVVSEFGLDYHMDYWGQGSQVTVSS”: the “polyreactivity (PSR sort gate)” value was “low polyreactivity”.

Consider “QVQLVESGGGLVQAGGSLRLSCAASGRIFVYNAMGWYRQAPGKERELVASITSSGGSTYYADSVKGRFTISRDNAKNTVYLQMNSLKPEDTAVYYCAADVQPDTRSTPEMDYWGQGTQVTVSS”, for which the “polyreactivity (PSR sort gate)” value was “low polyreactivity”.

“QVQLVESGGGLVQAGGSLRLSCAASGIIFRGYAMGWYRQAPGKERELVAGITSGGRTYYADSVKGRFTISRDNAKNTVYLQMNSLKPEDTAVYYCNADAYGDDWKIYDYWGQGTQVTVSS”: the “polyreactivity (PSR sort gate)” value is recorded as “low polyreactivity”.

Take “QVQLVESGGGLVQAGGSLRLSCADSGRIFVLYAMGWYRQAPGKERELVAAISRSSTSTYYADSVKGRFTISRDNAKNTGYLQMNSLKPEDTAVYYCAARGRYAYPRYGYYPVNYWGQGTQVTVSS”: the “polyreactivity (PSR sort gate)” value is listed as “high polyreactivity”.

On to “QVQLVESGGGLVQAGGILRLSCAASGFIFRKYAMGWYRQAPGKERELVAAINKSGGSTYYADSVKGRFTISRDNAKNTVYLQMNSLKPEDSAVYYCATVRTYRPPVRRGYWGQGTLVTVSS”, for which the “polyreactivity (PSR sort gate)” value is “high polyreactivity”.

In the case of “QVQLVESGGGLVQAGGSLRLSCAASGLTFRKYAMGWYRQAPGKERELVATISRNGGSTYFADSVKGRFTISRDNAKNTVYLQMNSLKPEDTAVYYCAADYYTYDYAGYGYWGQGTQVTVSS”, the “polyreactivity (PSR sort gate)” value is listed as “high polyreactivity”.

With “QVQLVESGGGLVQAGGSLRLSCAASGRNFDGYAMGWYRQAPGKERQLVAAISGGGNTKYADSVKGRFTISRDNAKNTVYLKMISLKPEDTAVYYCAARGYYYGYRFDSWGQGTQVTVSS”, the “polyreactivity (PSR sort gate)” value is reported as “high polyreactivity”.

In the case of “QVQLVESGGGLVQAGGSLRLSCAASGLILANYAMGWYRQAPGKERELVAAISSSGGSTYYADSVKGRFTISRDNAKNTVYLQMNSLKPEDTAVYYCAAYPLYRRRWTGDYWGQGTQVTVSS”, the “polyreactivity (PSR sort gate)” value was “high polyreactivity”.

Regarding “QVQLGESGGGLVQAGGSLRLSCAASGSTFITYAMGLYRQAPGKERELVAAITRGGRRYYADSVKGRFTISRDNAKNTVYLQMNSLKPEDTAVYYCAARDWASHTPFDYWGQGTQVTVSS”, the “polyreactivity (PSR sort gate)” value is reported as “high polyreactivity”.

As for “QVQLVESGGGLVQAGGSLRISCAAYGRIFGYYALGWYRQAPGKERELVAAITSGGSTNYADSVKGRFTISRDNAKNTVYLQMNSLKPEDTAVYYCAARSWYFSWEMYYWGQGTQVTVSS”, the “polyreactivity (PSR sort gate)” value is recorded as “high polyreactivity”.

Turning to “QVQLVESRGGLVQAGGSLRLSCAASGSILVRYAMGWDRQAPGKERELVAAITGTSGGTYYADSVKGRFTISRDNAKNTVYLQMNSLKPEDTAVYYCNADGGSGAYLDLTITDYDYWGQGTQVTVSS”, the “polyreactivity (PSR sort gate)” value is given as “low polyreactivity”.

As to “QVQLVESGRGVVQAGGSLRLSRADSGIIFLDHAMGWYRQAPGKEWELVAGINGGGRTDYADSVQGRFTISRDNAKNTVYLQMNSLTPEDTAVYYCAAESSWYSPDVNFWGQGTQVTVSS”, the “polyreactivity (PSR sort gate)” value is given as “low polyreactivity”.

Take “QVQLVESGGGLVQAGGSLRLSCAASGRTFRTYTMGWYRQAPGKERELVATISWSGGSTNYADSVKGRFTISRDNAKNTVYLQMNSLKPEDTAVYYCNAYVSPRYRGSRYYYWGQGTQVTVSS”: the “polyreactivity (PSR sort gate)” value is recorded as “high polyreactivity”.

On to “QVQLVESGGGLVQAGGSLRLSCAASGSIFGYNAMGWYRQAPATERELVATIRNGGITNYADSVKGRFTISRDNAKNTVYLQMNSLKPEDTAVYYCAADVVQYLYYFRLDYWGQGTQVTVSS”, for which the “polyreactivity (PSR sort gate)” value is “low polyreactivity”.

Take “QVQLEESGGGLVQAGGSLRLSCAASGSIFFGNDMGWYSQAPGKERELVAGISNGGRTNYADSVKGRFTISRDNAKNHVYLLMHSLKPEDTAVYYCAKHPVYIYWSRVLVGYSSWGQGTQGTVSS”: the “polyreactivity (PSR sort gate)” value is listed as “low polyreactivity”.

In the case of “QVQLVESGGGLVQAGGSLRLSSAASGSTFPYVKGWYRQAPGKESEFVAAISQRTGSTYYADSVKGRFTISRDNAKNTVYLQMNSLKPEDTAVYYCAKPGYLRPSRYDYWGQGTQVTVSS”, the “polyreactivity (PSR sort gate)” value was “high polyreactivity”.

“QVQLVESGGGLVHAGGSLRLSCAASGSIFVWNAMGWYRQAPGKERELVARIRYSSNTYYADSVKGRFTISRDNAKNNVYLQMTSLKPEDTAVYYCAAGSTRYAGWTYNYWGQGTHVTVSS”: the “polyreactivity (PSR sort gate)” value is given as “high polyreactivity”.

Take “QVQLVDSVGGLVQAGGSLRLSCAASGFTFYYNAMGLYRQAPGKERELVAAITSSGGSTYYADSVKGRFTISRDNAKNTVYLQMNSLKPEDTAVYYCAAVVYYRGYTYNYWGQGTQVTVSS”: the “polyreactivity (PSR sort gate)” value is “high polyreactivity”.

On to “QVQLVESGGGLVQAGGSLRLICAASGRTLRRYAMGWYRQAPGKERELVAAISRSGSSTYADSVKGRFTISRDNAKNTVYLQMHSLKPEDTAVYYCNAYQPRYGYWGQGTQVTVSS”, for which the “polyreactivity (PSR sort gate)” value is “high polyreactivity”.

In the case of “QVQLVESGGGLVQAGGSLRLSCAASGIIFYKYAMGWYRQAPGKERELVAAISYSGTSTYYADSVKGRFTISRDNAKNTVYLQINSLKPEDTAVYYCAAVTYVPRSTNGISLYDYWGQGTQVTVSS”, the “polyreactivity (PSR sort gate)” value is on record as “high polyreactivity”.

In the case of “QVQLVESGGGLVQAGGSLRISCAASGFTFSAYAMGRYRQAPGKERELVAAISWSGSRTYYADSVKGRFTISRDNAKNTVYLQMNSLKPEDTAVYYCAKEPYDTFGFYEYDYWGQGTQVNVSS”, the “polyreactivity (PSR sort gate)” value is reported as “low polyreactivity”.

Consider “QVQLVESGGGLVQAGGSLRLSCAASGSTFRSYAMGWYRQAPGKEWELVAAISGDGSTNYADSVKGRFTISRDNAKNTVYLQMNSLKPEDTAVSYCAKDPGYPAPYYDYYYWGQGTQVTVSS”, for which the “polyreactivity (PSR sort gate)” value was “low polyreactivity”.

For the sequence “QVQLVESGGGLVQAGGSLRLSCAASGNIFVGNAMGWYRQAPGKERELVAAIRRSGGTTYYADSVKGRFTISRDIAKNTVYIQMNSLKPEDTAVYYSAASRPYQGDYWGQGTQVTVSS”, the “polyreactivity (PSR sort gate)” value is recorded as “low polyreactivity”.

“QVHLVESGGGLVQAGGSLRLSCAASGRIFYGYAMGWYRQAPGKEREFVAAITVSAGSTYYADSVKGRFTISRDNAKNTVYLQMNSLKPEDTAVYYCAGENGSKEFDYWGQGTQVTVSS”: the “polyreactivity (PSR sort gate)” value is “low polyreactivity”.

Take “QVQLVESGGGLVQAGGSLRLSCAASGRTFKSYAMGWYRQAPGKERELVAAISSSGGRTFYADSVKGRFTISRDNAKNTVYLQMNSLKPEDTAVYYCNARYCYRYGGYKPVGGYYWGQGTQVTVSS”: the “polyreactivity (PSR sort gate)” value is listed as “high polyreactivity”.

“QVQLVESGVGLVQAGVSLRLSCAASGIILTEYAMGCYRQAHGKERELVAAINRVGSTNYADSVKGRFTISRDNAKNTVYLQMNSLNPEDTAVYYCAAGTYYNDYDYWGQGTQVTVSS”: the “polyreactivity (PSR sort gate)” value is recorded as “low polyreactivity”.

Regarding “QVQLVESGGGLVQAGGSLLLSCAASGSTFISYAMGWYRQAPGKERELVAAITWRGGSTYNADSVKGRFTISRDNAKNTVYLQMNSMKPEDTAVYYCAAEFYYYYGRYDYWGQGTQVTVSS”, the “polyreactivity (PSR sort gate)” value was “high polyreactivity”.
